Measured values: patent publication US20250163167A1 (SYNTHEKINE, published 2025)

T1: human IL-10 receptor (hIL-10R alpha and beta chains) on HEK-Blue IL-10 reporter cells (human, UniProt Q13651 22-578; Q08334 20-325)
T1 sequence 1: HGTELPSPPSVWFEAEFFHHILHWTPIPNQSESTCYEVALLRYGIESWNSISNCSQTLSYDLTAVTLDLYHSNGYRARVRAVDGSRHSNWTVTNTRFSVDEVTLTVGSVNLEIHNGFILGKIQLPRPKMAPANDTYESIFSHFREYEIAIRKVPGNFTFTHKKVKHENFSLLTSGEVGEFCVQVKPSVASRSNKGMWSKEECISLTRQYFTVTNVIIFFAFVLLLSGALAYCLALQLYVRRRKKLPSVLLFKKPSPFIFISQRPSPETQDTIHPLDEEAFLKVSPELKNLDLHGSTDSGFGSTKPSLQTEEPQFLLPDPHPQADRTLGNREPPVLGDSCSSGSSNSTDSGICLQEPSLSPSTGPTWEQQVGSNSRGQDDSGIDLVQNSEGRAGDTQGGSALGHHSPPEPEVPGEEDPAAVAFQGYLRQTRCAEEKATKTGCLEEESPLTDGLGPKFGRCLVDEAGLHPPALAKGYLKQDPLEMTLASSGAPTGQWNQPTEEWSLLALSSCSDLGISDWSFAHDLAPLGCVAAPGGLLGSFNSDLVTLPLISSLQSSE
T1 sequence 2: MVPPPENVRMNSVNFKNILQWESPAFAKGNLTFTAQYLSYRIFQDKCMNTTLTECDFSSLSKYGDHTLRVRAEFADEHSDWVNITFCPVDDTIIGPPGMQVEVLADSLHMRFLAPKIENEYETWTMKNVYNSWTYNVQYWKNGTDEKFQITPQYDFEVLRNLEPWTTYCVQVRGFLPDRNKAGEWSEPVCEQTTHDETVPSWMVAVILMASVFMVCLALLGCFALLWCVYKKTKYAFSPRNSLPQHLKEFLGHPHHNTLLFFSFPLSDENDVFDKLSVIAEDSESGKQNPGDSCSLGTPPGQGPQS


These binders were tested against T1, human IL-10 receptor (hIL-10R alpha and …) (assay: cell-based or functional assay).

Binder	Abs 630 (25 nM) [Abs 630]	Abs 630 (100 nM) [Abs 630]
IL10R binding molecule of SEQ ID NO: 322 (bispecific antibody) QVQLQESGGGSVQAGGSLRLSCAASRYTYNSYCMGWFRQAPGKEREGVATIDSDGMTRYADSVKGRFTISKDNAKNTLYLQMNSLKPEDTAMYYCAADADCTIAAMTTNPLGQGTQVTVSSGGGSQVQLQESGGGSVQAGGSLRLSCAVSGYAYSTYCMGWFRQAPGKEREGVAAIDSGGSTSYADSVKGRFTISKDNAKNTLYLRMNSLKPEDTAMYYCAAVPPPPDGGSCLFLGPEIKVSKADFRYWGQGTQVTVSSASHHHHHH	0.46	0.41
IL10R binding molecule of SEQ ID NO: 261 (bispecific antibody) QVQLQESGGGSVQAGGSLRLSCAASRYLYSIDYMAWFRQSPGKEREPVAVIYTASGATFYPDSVKGRFTISQDNAKMTVYLQMNSLKSEDTAMYYCAAVRKTDSYLFDAQSFTYWGQGTQVTVSSGGGSQVQLQESGGGSVQAGGSLRLSCAASGYSYSSYCMGWFRQAPGKEREGVATIDSDGMTRYADSVKGRFTISKDNAKNTLYLQMNSLKPEDTAMYYCAAPLYDCDSGAVGRNPPYWGQGTQVTVSSASHHHHHH	0.44	0.34
IL10R binding molecule of SEQ ID NO: 318 (bispecific antibody) QVQLQESGGGSVQAGGSLRLSCAASGYTYSSYCMGWFRQAPGKEREGVAHIDSDGSTSYADSVKGRFTISKDNAKNTLYLQMNSLKPEDTAMYYCAADPIPGPGYCDGGPNKYWGQGTQVTVSSGGGSQVQLQESGGGSVQAGGSLRLSCAASGYSNCSYDMTWYRQAPGKEREFVSAIHSDGSTRYADSVKGRFFISQDNAKNTVYLQMNSLKPEDTAMYYCKTDPLHCRAHGGSWYSVRANYWGQGTQVTVSSASHHHHHH	0.5	0.45
IL10R binding molecule of SEQ ID NO: 326 (bispecific antibody) QVQLQESGGGSVQAGGSLRLSCTVSRYTASVNYMGWFRQAPGKEREGVATIFTGAGTTYYANSVKGRFTISRDNAKNTAYLQMNSLKPEDTAIYYCAVDFRGGLLYRPAYEYTYRGQGTQVTVSSGGGSQVQLQESGGGSVQAGGSLRLSCAASRYLYSIDYMAWFRQSPGKEREPVAVIYTASGATFYPDSVKGRFTISQDNAKMTVYLQMNSLKSEDTAMYYCAAVRKTDSYLFDAQSFTYWGQGTQVTVSSASHHHHHH	0.47	0.56
IL10R binding molecule of SEQ ID NO: 320 (bispecific antibody) QVQLQESGGGSVQAGGSLRLSCAASRYTYNSYCMGWFRQAPGKEREGVATIDSDGMTRYADSVKGRFTISKDNAKNTLYLQMNSLKPEDTAMYYCAADADCTIAAMTTNPLGQGTQVTVSSGGGSQVQLQESGGGSVQAGGSLRLSCAASRFTYSSYCMGWFRQAPGKEREGVASIDSDGSTSYTDSVKGRFTISKDNAKNTLYLQMNSLKPEDTAMYYCALDLMSTVVPGFCGFLLSAGMDYWGKGTQVTVSSASHHHHHH	0.54	0.41
IL10R binding molecule of SEQ ID NO: 317 (bispecific antibody) QVQLQESGGGSVQAGGSLRLSCAASGYTYSSYCMGWFRQAPGKEREGVAHIDSDGSTSYADSVKGRFTISKDNAKNTLYLQMNSLKPEDTAMYYCAADPIPGPGYCDGGPNKYWGQGTQVTVSSGGGSQVQLQESGGGSVQAGGSLRLSCGASGYTYSSYCMGWFRQVPGKEREGVAVIDSDGSTSYADSVKGRFTISKDNGKNTLYLQMNSLKPEDTAMYYCAADLGHYRPPCGVLYLGMDYWGKGTQVTVSSASHHHHHH	0.45	0.38
IL10R binding molecule of SEQ ID NO: 324 (bispecific antibody) QVQLQESGGGSVQAGGSLRLSCAASRYTYNSYCMGWFRQAPGKEREGVATIDSDGMTRYADSVKGRFTISKDNAKNTLYLQMNSLKPEDTAMYYCAADADCTIAAMTTNPLGQGTQVTVSSGGGSQVQLQESGGGSVQAGGSLRLSCGASGYTYSSYCMGWFRQVPGKEREGVAVIDSDGSTSYADSVKGRFTISKDNGKNTLYLQMNSLKPEDTAMYYCAADLGHYRPPCGVLYLGMDYWGKGTQVTVSSASHHHHHH	0.61	0.44
IL10R binding molecule of SEQ ID NO: 316 (bispecific antibody) QVQLQESGGGSVQAGGSLRLSCAASGYTYSSYCMGWFRQAPGKEREGVAHIDSDGSTSYADSVKGRFTISKDNAKNTLYLQMNSLKPEDTAMYYCAADPIPGPGYCDGGPNKYWGQGTQVTVSSGGGSQVQLQESGGGSVQAGGSLRLSCTVSGYTYSSNCMGWFRQAPGKEREGVATIYTGGGNTYYADSVKGRFTISQDNAKNTVYLQMNNLKPEDTAMYYCAAEPLSRVYGGSCPTPTFDYWGQGTQVTVSSASHHHHHH	0.48	0.39
IL10R binding molecule of SEQ ID NO: 325 (bispecific antibody) QVQLQESGGGSVQAGGSLRLSCAASRYTYNSYCMGWFRQAPGKEREGVATIDSDGMTRYADSVKGRFTISKDNAKNTLYLQMNSLKPEDTAMYYCAADADCTIAAMTTNPLGQGTQVTVSSGGGSQVQLQESGGGSVQAGGSLRLSCAASGYSNCSYDMTWYRQAPGKEREFVSAIHSDGSTRYADSVKGRFFISQDNAKNTVYLQMNSLKPEDTAMYYCKTDPLHCRAHGGSWYSVRANYWGQGTQVTVSSASHHHHHH	0.49	0.42
IL10R binding molecule of SEQ ID NO: 319 (bispecific antibody) QVQLQESGGGSVQAGGSLRLSCAASRYTYNSYCMGWFRQAPGKEREGVATIDSDGMTRYADSVKGRFTISKDNAKNTLYLQMNSLKPEDTAMYYCAADADCTIAAMTTNPLGQGTQVTVSSGGGSQVQLQESGGGSVQAGGSLRLSCAASRYLYSIDYMAWFRQSPGKEREPVAVIYTASGATFYPDSVKGRFTISQDNAKMTVYLQMNSLKSEDTAMYYCAAVRKTDSYLFDAQSFTYWGQGTQVTVSSASHHHHHH	0.47	0.36
IL10R binding molecule of SEQ ID NO: 323 (bispecific antibody) QVQLQESGGGSVQAGGSLRLSCAASRYTYNSYCMGWFRQAPGKEREGVATIDSDGMTRYADSVKGRFTISKDNAKNTLYLQMNSLKPEDTAMYYCAADADCTIAAMTTNPLGQGTQVTVSSGGGSQVQLQESGGGSVQAGGSLRLSCTVSGYTYSSNCMGWFRQAPGKEREGVATIYTGGGNTYYADSVKGRFTISQDNAKNTVYLQMNNLKPEDTAMYYCAAEPLSRVYGGSCPTPTFDYWGQGTQVTVSSASHHHHHH	0.64	0.38
IL10R binding molecule of SEQ ID NO: 329 (bispecific antibody) QVQLQESGGGSVQAGGSLRLSCTVSRYTASVNYMGWFRQAPGKEREGVATIFTGAGTTYYANSVKGRFTISRDNAKNTAYLQMNSLKPEDTAIYYCAVDFRGGLLYRPAYEYTYRGQGTQVTVSSGGGSQVQLQESGGGSVQAGGSLRLSCAVSGYAYSTYCMGWFRQAPGKEREGVAAIDSGGSTSYADSVKGRFTISKDNAKNTLYLRMNSLKPEDTAMYYCAAVPPPPDGGSCLFLGPEIKVSKADFRYWGQGTQVTVSSASHHHHHH	0.48	0.39
IL10R binding molecule of SEQ ID NO: 327 (bispecific antibody) QVQLQESGGGSVQAGGSLRLSCTVSRYTASVNYMGWFRQAPGKEREGVATIFTGAGTTYYANSVKGRFTISRDNAKNTAYLQMNSLKPEDTAIYYCAVDFRGGLLYRPAYEYTYRGQGTQVTVSSGGGSQVQLQESGGGSVQAGGSLRLSCAASRFTYSSYCMGWFRQAPGKEREGVASIDSDGSTSYTDSVKGRFTISKDNAKNTLYLQMNSLKPEDTAMYYCALDLMSTVVPGFCGFLLSAGMDYWGKGTQVTVSSASHHHHHH	0.52	0.54
IL10R binding molecule of SEQ ID NO: 321 (bispecific antibody) QVQLQESGGGSVQAGGSLRLSCAASRYTYNSYCMGWFRQAPGKEREGVATIDSDGMTRYADSVKGRFTISKDNAKNTLYLQMNSLKPEDTAMYYCAADADCTIAAMTTNPLGQGTQVTVSSGGGSQVQLQESGGGSVQAGGSLRLSCAASGYTYSMYCMGWFRQAPGKEREGVAQINSDGSTSYADSVKGRFTISKDNAKNTLYLQMNSLKPEDTAMYYCAADSRVYGGSWYERLCGPYTYEYNYWGQGTQVTVSSASHHHHHH	0.46	0.4
IL10R binding molecule of SEQ ID NO: 328 (bispecific antibody) QVQLQESGGGSVQAGGSLRLSCTVSRYTASVNYMGWFRQAPGKEREGVATIFTGAGTTYYANSVKGRFTISRDNAKNTAYLQMNSLKPEDTAIYYCAVDFRGGLLYRPAYEYTYRGQGTQVTVSSGGGSQVQLQESGGGSVQAGGSLRLSCAASGYTYSMYCMGWFRQAPGKEREGVAQINSDGSTSYADSVKGRFTISKDNAKNTLYLQMNSLKPEDTAMYYCAADSRVYGGSWYERLCGPYTYEYNYWGQGTQVTVSSASHHHHHH	0.44	0.34
